US20080131882A1
Primed or numbered codes have the meaning given here. No end group written: not given here. Biotin′ = not defined here

Columns and labels:
Assay in all cases: ELISA, biotinylated peptide on streptavidin plate
RhD202.158E07 = biological target: RhD202.158E07
RhD305.181E06 = biological target: RhD305.181E06
RhD162.119G12 = biological target: RhD162.119G12

B1: PEP202 (peptide)
peptide: CAPRNPYEC-{Biotin′}
modifications: cysteine pairing not given here
signal-to-noise ratio (RhD202.158E07): 10

B2: PEP305 (peptide)
peptide: CTTLLHFLC
modifications: coupled to Biotin at the C-terminus
signal-to-noise ratio (RhD305.181E06): 10

B3: PEP162 (peptide)
peptide: CMGYGPRMC-{Biotin′}
modifications: cysteine pairing not given here
signal-to-noise ratio (RhD162.119G12): 10
